Laboratory results from PMC9628495.
Each block holds one substance with its values, some of them ahead of it.

Key:
[1] = target: human FcγRIIIa-158V-GST (dimeric GST-fused form) (human)
[2] = target: hFcRn-SA-Alexa 488, P55899;P61769; assay: flow cytometry (FACS) of E. coli spheroplasts displaying Fc; conditions: 40 nM hFcRn-SA-Alexa 488, read off a plot
[3] = target: trastuzumab (wild-type Fc, prepared in-house) (human); assay: SPR; Biacore T200; HER2 amine-coupled on a CM5 chip (~3000 RU), trastuzumab-Fc variants captured on it (~300 RU), hFcRn injected at 1000, 500, 250, 125 and 62.5 nM in PBS (printed '10x') with 0.05% Tween 20, pH 6.0, 50 μl/min; 1:1 binding model; 'Steady state' for trastuzumab with wild-type Fc
[4] = target: trastuzumab-LS (M428L/N434S) (human); assay: as above
[5] = target: trastuzumab-PFc29 (Q311R/M428L) (human); assay: as above
[6] = target: trastuzumab-PFc41 (L309G/M428L) (human); assay: as above
[7] = target: trastuzumab-YTE (M252Y/S254T/T256E) (human); assay: as above
[8] = target: human complement C1q (human) (UniProt P02745)
[9] = target: EFc41 (P228L/L234F/E269D/Q342L/E388D/T394A/M428L) Fc variant displayed on the E. coli inner membrane (human); assay: flow cytometry on cells; single clones rescued from the fourth round of screening, Fc displayed on E. coli spheroplasts, fluorescent hFcRn probe; screening at pH 5.8, pH of the clone analysis not stated; mean fluorescence intensity
[10] = target: PFc29 (Q311R/M428L) Fc variant displayed on the E. coli inner membrane (human); assay: as above
[11] = target: PFc41 (L309G/M428L) Fc variant displayed on the E. coli inner membrane (human); assay: as above
[12] = pH 5.8 in the image key (pH 6.0 in the legend), parent: est. 300

Sequence of human FcγRIIIa-158V-GST (dimeric GST-fused form) (human) (P08637 17-208): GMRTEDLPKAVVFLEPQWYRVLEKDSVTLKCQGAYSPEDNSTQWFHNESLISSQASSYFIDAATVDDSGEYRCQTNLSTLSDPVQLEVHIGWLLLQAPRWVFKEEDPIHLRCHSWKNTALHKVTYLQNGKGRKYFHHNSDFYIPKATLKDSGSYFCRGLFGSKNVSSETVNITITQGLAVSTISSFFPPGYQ
Sequence of UniProt P02745 (P02745 23-245, chain 1 of 3): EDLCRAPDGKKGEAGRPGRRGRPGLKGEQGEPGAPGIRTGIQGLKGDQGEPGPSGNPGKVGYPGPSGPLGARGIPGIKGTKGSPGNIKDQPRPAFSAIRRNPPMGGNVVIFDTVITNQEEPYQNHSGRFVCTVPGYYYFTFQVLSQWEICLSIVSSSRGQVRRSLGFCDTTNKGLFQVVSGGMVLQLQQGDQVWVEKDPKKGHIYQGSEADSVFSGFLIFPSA
Sequence of UniProt P02745 (P02746 28-253, chain 2 of 3, further chain): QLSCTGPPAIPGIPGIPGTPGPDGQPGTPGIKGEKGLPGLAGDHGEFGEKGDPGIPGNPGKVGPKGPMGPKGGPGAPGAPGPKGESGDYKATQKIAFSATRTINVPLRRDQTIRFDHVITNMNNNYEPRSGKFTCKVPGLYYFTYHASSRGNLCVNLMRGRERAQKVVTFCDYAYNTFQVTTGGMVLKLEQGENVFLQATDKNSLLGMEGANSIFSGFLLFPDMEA
Sequence of UniProt P02745 (P02747 29-245, chain 3 of 3, further chain): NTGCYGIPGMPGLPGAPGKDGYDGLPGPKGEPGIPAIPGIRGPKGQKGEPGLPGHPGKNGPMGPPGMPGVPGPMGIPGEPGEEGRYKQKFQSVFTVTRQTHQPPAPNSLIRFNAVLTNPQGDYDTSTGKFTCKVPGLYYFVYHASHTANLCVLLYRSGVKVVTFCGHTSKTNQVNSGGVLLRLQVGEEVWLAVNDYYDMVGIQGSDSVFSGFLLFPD

EC50 of ADCC (ADCC Reporter Bioassay; SKBR-3 target cells, FcγRIIIa-158V-expressing engineered Jurkat effector cells; luminescence) [1]: 0.12 µg/mL
Substance: trastuzumab (wild-type Fc, prepared in-house) (antibody)

EC50 of ADCC (ADCC Reporter Bioassay; SKBR-3 target cells, FcγRIIIa-158V-expressing engineered Jurkat effector cells; luminescence) [1]: 0.061 µg/mL
Substance: trastuzumab-LS (M428L/N434S) (antibody)

response [2, 12]: 280 MFI
response ([2]; pH 7.4, parent: est. 30): 40 MFI
Substance: wild-type Fc displayed on the E. coli inner membrane Q311R

Kd [3]: 647 nM
Kd [4]: 81.6 nM
Kd [5]: 149 nM
Kd [6]: 198 nM
Kd [7]: 147 nM
Substance: monomeric human FcRn (human FcRn α chain-His complexed with human β2-microglobulin) (from UniProt P55899 24-297; P61769 21-119)

response ([2]; pH 7.4, parent: est. 30): 80 MFI
Substance: wild-type Fc displayed on the E. coli inner membrane Q311R; M428L

EC50 of CDC (lysis of Raji cells with normal human complement) [8]: 0.33 µg/mL
Substance: rituximab (wild-type Fc, prepared in-house) (antibody)

response [2, 12]: 430 MFI
response ([2]; pH 7.4, parent: est. 30): 70 MFI
Substance: wild-type Fc displayed on the E. coli inner membrane M428L

EC50 of ADCC (ADCC Reporter Bioassay; SKBR-3 target cells, FcγRIIIa-158V-expressing engineered Jurkat effector cells; luminescence) [1]: 0.051 µg/mL
Substance: trastuzumab-PFc29 (Q311R/M428L) (antibody)

MFI [9]: 862
MFI [10]: 1180
MFI [11]: 1910
Substance: Alexa 488-labelled hFcRn probe (FcRn-GST or FcRn-streptavidin) (from UniProt P55899 24-297; P61769 21-119) (complex)
